Experimental findings from paper PMC10994814, “Enzymatic activity of cGAS in the presence of three types of DNAs: limited cGAS stimulation by single-stranded HIV-1 SL2 DNA” are described below.

For the data set, the target named is human cGAS (Homo sapiens, UniProt Q8N884 1-522). The data set is described as follows: EMSA; 1 uM DNA, 3 uM cGAS; EMSA: 1 uM DNA, 0-5 uM cGAS, 20 mM Tris-HCl pH 8.0 (4 C), 200 mM NaCl, on ice 30 min; 8% native PAGE in 25 mM Tris-HCl pH 8.5, 190 mM glycine; ethidium bromide. To be noted: protein: recombinant; tags: none (N-terminal His6-lipoyl domain removed with TEV protease); 20 bp duplex, unpaired G3 on all four ends (fork at both ends).
Sequence of human cGAS (Q8N884 whole entry, the tested form may be a part): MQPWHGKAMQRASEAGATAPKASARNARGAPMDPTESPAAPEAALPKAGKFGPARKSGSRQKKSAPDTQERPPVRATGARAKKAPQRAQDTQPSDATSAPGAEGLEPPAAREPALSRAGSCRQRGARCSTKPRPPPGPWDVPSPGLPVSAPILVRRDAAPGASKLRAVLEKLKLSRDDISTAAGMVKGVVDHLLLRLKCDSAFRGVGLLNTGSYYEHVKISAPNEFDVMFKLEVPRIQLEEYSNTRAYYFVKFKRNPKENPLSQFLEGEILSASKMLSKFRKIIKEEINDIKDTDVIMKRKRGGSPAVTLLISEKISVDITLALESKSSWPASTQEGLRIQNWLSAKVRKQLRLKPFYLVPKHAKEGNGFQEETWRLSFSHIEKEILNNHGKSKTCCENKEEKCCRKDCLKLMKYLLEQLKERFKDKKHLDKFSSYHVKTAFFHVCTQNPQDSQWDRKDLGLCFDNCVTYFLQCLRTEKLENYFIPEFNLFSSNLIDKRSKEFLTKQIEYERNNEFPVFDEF

B1: G3 Y-form DNA (dsDNA)
DNA 1: GGGGAACTCCAGCAGGACCATTGGGG
DNA 2: GGGCAATGGTCCTGCTGGAGTTCGGG
As to B1, the binding signal was ~0 % unbound DNA at cGAS/DNA ratio 3.
